Data reported in PMC5435687 (Scientific Reports, 2017).
Several values for one entry are separate records, joined by “and”; a condition that tells them apart may be missing. Equal values may be shown once.

Test system: SH-SY5Y cells
Assay: Confocal imaging based quantification of cellular uptake of Aβ
Type: cell-based, human
Conditions: for number of internalised Aβ peptides per cell (rounded): SH-SY5Y, 1 µM peptide, 8 h, imaging-based quantification, order-of-magnitude statement; for intravesicular Aβ concentration: re-calculated from molecules per cell (1 µM, 8 h) under assumption of total lysosomal load of 10 μm^3 per cell
Procedure: The samples were washed 1x in serum free medium prior to incubation with Aβ peptides and/or other reagents also in serum free medium that was supplemented with 30 mM HEPES and 2% B-27. For experiments including Trf B-27 was omitted as it, according to the media formulation provided by the manufacturer, contains unlabelled Trf that interferes with the experiment. Prior to imaging, cells were stained with 50 nM LysoTracker Deep Red for 30 min and 5 µg/ml Hoechst 33342 was added during the last 10 min of incubation. The cells were thereafter washed 1x, treated with 5 µg/ml FM 4–64 and imaged immediately (for labelling of cellular membrane) or after 10 min incubation at 37 °C (for labelling of cellular membrane and endocytic vesicles). Confocal images were acquired either on a Nikon C2+ confocal microscope equipped with a C2-DUVB GaAsP Detector Unit and using an oil-immersion 60 × 1.4 Nikon APO objective (Nikon Instruments, Amsterdam, Netherlands), or on a home-built Thorlabs CLS system equipped with a Galvo:Resonant scanner, a Multi-Channel Fiber-Coupled laser source and High-Sensitivity GaAsP PMT detectors recording onto ThorImageLS software (Thorlabs Inc, New Jersey, U.S.A.). The scanner unit was mounted onto a Leica DMIRB microscope equipped with an oil immersion 63x NA 1.47 Leica HCX PL APO objective for imaging and co-localisation analysis, or a 40x NA 0.55 Leica N PLAN L CORR air objective for quantification of peptide uptake. The sample was excited and detected sequentially with appropriate excitation laser lines and emission filters.
Images were captured with an open pinhole, corresponding to 7.8 airy units (AUs), in order to sample intensity from intracellular peptide throughout the full thickness of the cells. First, to determine an accurate sampling depth, images were acquired at three focal planes separated by 1 µm between each and analysed for matched summed intracellular intensity. Next, images were acquired with identical settings from a field of view with on average 25 cells/image. […] To obtain the total Aβ emission intensity per cell, all pixel values were summed and divided by the total number of cells in the image (the cell number was determined from the number of nuclei visible in the Hoechst emission channel). […] The mean intensity per pixel was calculated and related to concentration by performing a linear regression of mean intensity from three samples per concentration. The imaging depth was calculated based on imaging parameters and objective specifications generating a point spread function (PSF) for the focal spot. The resulting voxel size was calculated to be 740 nm in the axial direction, whereby 2.5x this voxel was determined to be representative of the sampling probe depth. […]

Substance | number of internalised Aβ peptides per cell (rounded) | intravesicular Aβ concentration
Aβ(1–40): Synthetic 40 residue amyloid-β peptide conjugated to HiLyte Fluor HF488 (or HF647) at the N-terminus, from Anaspec | 400,000 molecules per cell and ~ 400,000 molecules per cell | ~ 60 µM
Aβ(1–42): Synthetic 42 residue amyloid-β peptide conjugated to HiLyte Fluor HF488 (or HF647) at the N-terminus, from Anaspec | 800,000 molecules per cell and ~ 800,000 molecules per cell | ~ 140 µM
